The values that follow come from article doi:10.1101/2023.01.11.523539.

Holding throughout (assay): two-hybrid
Assay [1] deals with BD-MLA13 (wild-type MLA13 fused N-terminally to the LexA binding domain) (barley).
The target of assay [2] is BD-MLA13^D2A_E17A (α1-helix mutant of MLA13 fused N-terminally to the LexA binding domain) (barley).
The target in assay [3] is BD-MLA13^F99E (CC domain mutant of MLA13 fused N-terminally to the LexA binding domain) (barley).

As to “AD-AVRA13-V2 (AVRA13-V2 lacking signal peptide, fused N-terminally to the B42 activation domain and 1xHA) (natural protein)”, the results for the lowest dilution of yeast with growth without leucine in assay [1], in assay [2] and in assay [3] were 0.001 OD600, 0.01 OD600 and 0.01 OD600, respectively.
